Source: paper PMC11326354, “Mechanism of human α3β GlyR modulation in inflammatory pain and 2, 6-DTBP interaction” (Research Square, 2024)
Substitutions are numbered along the chain they refer to. Names may count otherwise.

B1: human glycine receptor α3 subunit, α3em construct (receptor, UniProt O75311-1 34-464, looked up)
chain: ARSRSAPMSPSDFLDKLMGRTSGYDARIRPNFKGPPVNVTCNIFINSFGSIAETTMDYRVNIFLRQKWNDPRLAYSEYPDDSLDLDPSMLDSIWKPDLFFANEKGANFHEVTTDNKLLRIFKNGNVLYSIRLTLTLSCPMDLKNFPMDVQTCIMQLESFGYTMNDLIFEWQDEAPVQVAEGLTLPQFLLKEEKDLRYCTKHYNTGKFTCIEVRFHLERQMGYYLIQMYIPSLLIVILSWVSFWINMDAAPARVALGITTVLTMTTQSSGSRASLPKVSYVKAIDIWMAVCLLFVFSALLEYAAVNFVSRQHKELLRFRRKRKNKTEAFDMDDEVRESRFSFTAYGMGPCLQAKDGMTPKGPNHPVQVMPKSPDEMRKVFIDRAKKIDTISRACFPLAFLIFNIFYWVIYKILRHEDIHQQQD
notes: glycine receptor α3 subunit, human, NCBI NP_006520.2; 9 residues of the M3/M4 loop (A329-S337) deleted; the model description counts 422 aa in all, from A1 to D431; Four copies of this subunit stand with one β subunit in the pentamer; also called GlyR α3
B2: human glycine receptor α3 subunit, α3S346E_(FRET) construct (receptor, UniProt O75311-1 34-464, looked up)
chain: B1 chain with C41V, S337E
modifications: cysteine-reactive dye (LD555-MAL or LD655-MAL) at C358
notes: glycine receptor α3 subunit, human, NCBI NP_006520.2; α3S346Eem (A329-S337 deleted, S346E) with C41V and an A1 tag inserted between S380 and P381; Stood in the smFRET assay as part of the α3_(FRET)S346Eβ_(FRET) pentamer, which was held on the glass by the GFP in β_(FRET) (βem with C115S); also called α3_(FRET)S346E
B3: human glycine receptor α3 subunit, α3_(FRET) construct (receptor, UniProt O75311-1 34-464, looked up)
chain: B1 chain with C41V
modifications: cysteine-reactive dye (LD555-MAL or LD655-MAL) at C358
notes: glycine receptor α3 subunit, human, NCBI NP_006520.2; α3em (A329-S337 deleted) with C41V and an A1 tag inserted between S380 and P381; Stood in the smFRET assay as part of the α3_(FRET)β_(FRET) pentamer, which was held on the glass by the GFP in β_(FRET) (βem with C115S); also called α_(FRET)
B4: human glycine receptor α3 subunit, α3S346Eem construct (phosphorylation mimic) (receptor, UniProt O75311-1 34-464, looked up)
chain: B1 chain with S337E
notes: glycine receptor α3 subunit, human, NCBI NP_006520.2; α3em (A329-S337 deleted) with S346E; the model description counts 422 aa in all, from A1 to D431; Four copies of this subunit stand with one β subunit in the pentamer; also called α3emS346E

Tests used:
[1] = target: human glycine receptor β subunit, βem construct (human); test: cryo-EM structure; heteromeric GlyR reconstituted in saposin nanodisc with brain polar lipids extract, 20 mM Tris-HCl pH 8.0, 200 mM NaCl, 2 mM glycine
Chain of human glycine receptor β subunit, βem construct (human) (P48167 whole entry): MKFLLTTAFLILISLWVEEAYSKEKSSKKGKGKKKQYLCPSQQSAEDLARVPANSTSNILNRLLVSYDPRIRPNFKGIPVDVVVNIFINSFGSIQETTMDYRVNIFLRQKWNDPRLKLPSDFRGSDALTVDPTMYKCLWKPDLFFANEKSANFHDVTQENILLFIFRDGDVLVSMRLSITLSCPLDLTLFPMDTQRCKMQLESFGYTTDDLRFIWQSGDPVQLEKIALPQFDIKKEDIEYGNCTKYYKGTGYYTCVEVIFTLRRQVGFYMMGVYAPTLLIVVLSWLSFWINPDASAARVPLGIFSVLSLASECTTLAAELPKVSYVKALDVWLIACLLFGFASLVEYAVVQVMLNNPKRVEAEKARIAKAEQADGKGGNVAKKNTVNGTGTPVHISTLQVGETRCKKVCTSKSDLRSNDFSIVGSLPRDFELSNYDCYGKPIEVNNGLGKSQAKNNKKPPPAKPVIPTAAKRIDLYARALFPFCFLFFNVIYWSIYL

[2] = target: the molecule itself; test: cryo-EM structure; heteromeric GlyR in 0.06% digitonin, 20 mM Tris-HCl pH 8.0, 200 mM NaCl, 2 mM glycine
[3] = target: human glycine receptor β subunit, βem construct (human); test: as above
[4] = target: the molecule itself; test: FRET or BRET; TIRF-based single-molecule FRET between LD555 and LD655 at C358 of different α3 subunits; labelled GlyR (0.7 nM) held on NeutrAvidin/biotin anti-GFP antibody-coated glass by the GFP in β; 50 mM HEPES-NaOH pH 7.4, 150 mM NaCl, 10 mM MgCl2, 22 °C; apo, with 2 mM glycine, with 2 mM glycine and 500 μM 2, 6-DTBP
[5] = target: human glycine receptor β subunit, βem construct (human); test: cryo-EM structure; heteromeric GlyR in 0.06% digitonin, 2 mM glycine, with 500 μM 2, 6-DTBP throughout the purification and another 500 μM added before grid freezing

Binder	stoichiometry N [1]	binding result [2]	stoichiometry N [3]	binding result [4]	stoichiometry N [5]
B1	4 α3 per β	binds	4 α3 per β	–	–
B2	–	–	–	binds	–
B3	–	–	–	binds	–
B4	–	binds	4 α3 per β	–	4 α3 per β
